Data published in paper PMC3169552.

Legend:
[1] = target: His6-tagged vaccinia virus D13 (native D13) (vaccinia virus, Western Reserve strain); experiment: crystal structure
[2] = target: His6-tagged vaccinia virus D13 (native D13) (vaccinia virus, Western Reserve strain); experiment: negative-stain electron microscopy

**Q.** Which stoichiometry N [1] does the source give for “His6-tagged vaccinia virus D13 (native D13) (natural protein)” here?
**A.** Its stoichiometry N is 3.

**Q.** And the stoichiometry N [2]?
**A.** The stoichiometry N was 3.
